Measurements as given in US20100255003A1.
Values belong to the substance of their own block, whether it stands above or below them.

Tests used:
Experiment in all cases: cell-based or functional assay
[1] = target: Thrombospondin (TSP)-1 (human) (UniProt P07996)
CD36 (human) = CD36 (human) (UniProt P16671)
[2] = target: CD51/alphaV integrin (human) (UniProt P06756)
UniProt P06756, sequence (P06756 31-1048): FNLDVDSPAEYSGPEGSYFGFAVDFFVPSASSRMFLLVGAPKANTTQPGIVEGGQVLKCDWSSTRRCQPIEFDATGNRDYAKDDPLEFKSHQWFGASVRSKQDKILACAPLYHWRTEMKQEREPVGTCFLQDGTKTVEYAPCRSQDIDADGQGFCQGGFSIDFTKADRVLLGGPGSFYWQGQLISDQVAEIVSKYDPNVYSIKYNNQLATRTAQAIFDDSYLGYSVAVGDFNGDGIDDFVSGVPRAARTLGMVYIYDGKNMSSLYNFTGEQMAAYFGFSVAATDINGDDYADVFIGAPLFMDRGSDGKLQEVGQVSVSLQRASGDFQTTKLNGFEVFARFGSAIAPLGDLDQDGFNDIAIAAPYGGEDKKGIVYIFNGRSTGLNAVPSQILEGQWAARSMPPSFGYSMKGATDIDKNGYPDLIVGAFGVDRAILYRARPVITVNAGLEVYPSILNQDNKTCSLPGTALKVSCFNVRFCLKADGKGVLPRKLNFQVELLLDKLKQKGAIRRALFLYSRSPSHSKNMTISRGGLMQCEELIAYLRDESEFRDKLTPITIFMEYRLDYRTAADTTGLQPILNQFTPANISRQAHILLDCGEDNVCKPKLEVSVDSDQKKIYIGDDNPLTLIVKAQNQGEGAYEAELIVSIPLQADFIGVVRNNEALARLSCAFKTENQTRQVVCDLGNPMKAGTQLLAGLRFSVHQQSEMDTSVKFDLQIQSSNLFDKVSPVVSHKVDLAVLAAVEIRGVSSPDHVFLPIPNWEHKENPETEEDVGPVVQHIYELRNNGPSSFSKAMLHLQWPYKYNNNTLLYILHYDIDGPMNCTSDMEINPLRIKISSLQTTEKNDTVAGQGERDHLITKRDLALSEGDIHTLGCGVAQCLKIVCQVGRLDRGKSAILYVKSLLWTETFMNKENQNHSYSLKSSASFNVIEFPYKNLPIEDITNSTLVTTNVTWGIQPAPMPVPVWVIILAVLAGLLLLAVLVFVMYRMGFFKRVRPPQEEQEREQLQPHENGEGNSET

UniProt P16671, sequence (P16671 2-472): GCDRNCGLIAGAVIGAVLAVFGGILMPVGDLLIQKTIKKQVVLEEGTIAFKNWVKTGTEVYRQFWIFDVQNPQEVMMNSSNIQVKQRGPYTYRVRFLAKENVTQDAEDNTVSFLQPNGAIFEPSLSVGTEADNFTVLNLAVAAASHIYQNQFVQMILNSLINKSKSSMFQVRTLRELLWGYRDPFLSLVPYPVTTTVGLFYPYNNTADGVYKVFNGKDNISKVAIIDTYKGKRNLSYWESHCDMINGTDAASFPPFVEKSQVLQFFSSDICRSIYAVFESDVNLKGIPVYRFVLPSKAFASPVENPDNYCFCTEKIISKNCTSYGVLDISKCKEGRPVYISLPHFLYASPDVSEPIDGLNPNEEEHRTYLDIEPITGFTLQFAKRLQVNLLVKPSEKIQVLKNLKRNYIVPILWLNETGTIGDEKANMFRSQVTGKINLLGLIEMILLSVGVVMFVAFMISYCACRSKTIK
UniProt P07996, sequence (P07996 19-1170 A84T limits assumed): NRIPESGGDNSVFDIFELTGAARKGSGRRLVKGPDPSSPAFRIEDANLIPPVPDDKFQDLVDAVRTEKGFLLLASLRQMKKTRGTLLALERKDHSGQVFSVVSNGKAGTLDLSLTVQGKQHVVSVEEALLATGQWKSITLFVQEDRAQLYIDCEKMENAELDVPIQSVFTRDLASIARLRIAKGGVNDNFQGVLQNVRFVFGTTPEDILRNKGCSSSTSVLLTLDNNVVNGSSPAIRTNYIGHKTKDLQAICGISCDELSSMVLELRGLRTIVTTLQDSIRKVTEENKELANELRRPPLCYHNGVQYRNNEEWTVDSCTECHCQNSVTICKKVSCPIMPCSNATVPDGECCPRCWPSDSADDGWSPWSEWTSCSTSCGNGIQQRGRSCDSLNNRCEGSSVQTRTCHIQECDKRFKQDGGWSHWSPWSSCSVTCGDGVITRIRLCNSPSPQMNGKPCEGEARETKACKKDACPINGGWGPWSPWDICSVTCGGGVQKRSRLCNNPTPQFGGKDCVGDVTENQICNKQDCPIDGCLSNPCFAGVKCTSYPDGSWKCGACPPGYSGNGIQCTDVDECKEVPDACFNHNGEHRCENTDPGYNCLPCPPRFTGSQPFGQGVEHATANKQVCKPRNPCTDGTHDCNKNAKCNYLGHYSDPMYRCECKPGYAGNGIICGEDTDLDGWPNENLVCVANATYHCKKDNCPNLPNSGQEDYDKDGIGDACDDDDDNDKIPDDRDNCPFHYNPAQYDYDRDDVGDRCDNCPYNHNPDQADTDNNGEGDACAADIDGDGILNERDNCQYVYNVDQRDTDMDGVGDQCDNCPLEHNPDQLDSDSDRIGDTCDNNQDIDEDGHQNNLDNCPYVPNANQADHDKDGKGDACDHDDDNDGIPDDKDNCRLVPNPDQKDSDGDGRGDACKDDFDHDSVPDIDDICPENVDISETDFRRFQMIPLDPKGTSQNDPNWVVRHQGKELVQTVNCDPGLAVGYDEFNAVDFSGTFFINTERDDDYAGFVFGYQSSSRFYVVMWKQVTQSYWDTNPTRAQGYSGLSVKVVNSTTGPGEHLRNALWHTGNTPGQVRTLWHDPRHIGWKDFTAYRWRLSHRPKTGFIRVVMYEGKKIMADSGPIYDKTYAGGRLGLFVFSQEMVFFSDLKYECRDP

inhibition of apoptotic monocyte endocytosis by immature dendritic cells (percentage of thrombospondin-1-dependent endocytosis) [1]: 90 percent
Substance: azide-free polyclonal goat anti-human thrombospondin-1 N-terminus antibody N-20 (Santa Cruz Biotechnology, Cat No. sc-12312)

inhibition of apoptotic monocyte endocytosis by immature dendritic cells (percentage of thrombospondin-1-dependent endocytosis) (CD36 (human)): 64 percent
Substance: mouse IgM anti-human CD36 monoclonal antibody (clone SMO; Serotec, Cat. No. MCA722XZ)

inhibition of apoptotic monocyte endocytosis by immature dendritic cells (percentage of thrombospondin-1-dependent endocytosis) [2]: 24 percent
Substance: mouse anti-CD51/integrin alphaV monoclonal antibody (clone AV1; Chemicon International, Cat. No. MAB2021Z)
